# B1: EE209_2 TCR (SEQ ID NOs: 12 and 13; beta chain using TRBC2-201) (TCR)
# TCR alpha: ILNVEQSPQSLHVQEGDSTNFTCSFPSSNFYALHWYRWETAKSPEALFVMTLNGDEKKKGRISATLNTKEGYSYLYIKGSQPEDSATYLCAFLPGYSTLTFGKGTMLLVSPDIQNPDPAVYQLRDSKSSDKSVCLFTDFDSQTNVSQSKDSDVYITDKTVLDMRSMDFKSNSAVAWSNKSDFACANAFNNSIIPEDTFFPSPESSCDVKLVEKSFETDTNLNFQNLSVIGFRILLLKVAGFNLLMTLRLWSS
# TCR beta: DAGITQSPRYKITETGRQVTLMCHQTWSHSYMFWYRQDLGHGLRLIYYSAAADITDKGEVPDGYVVSRSKTENFPLTLESATRSQTSVYFCASSVGRGGTEAFFGQGTRLTVVEDLKNVFPPKVAVFEPSEAEISHTQKATLVCLATGFYPDHVELSWWVNGKEVHSGVSTDPQPLKEQPALNDSRYCLSSRLRVSATFWQNPRNHFRCQVQFYGLSENDEWTQDRAKPVTQIVSAEAWGRADCGFTSESYQQGVLSATILYEILLGKATLYAVLVSALVLMAMVKRKDSRG
# B2: EE209_2 TCR (TCR, V domains shown)
# Valpha: ILNVEQSPQSLHVQEGDSTNFTCSFPSSNFYALHWYRWETAKSPEALFVMTLNGDEKKKGRISATLNTKEGYSYLYIKGSQPEDSATYLCAFLPGYSTLTFGKGTMLLVSP
# Vbeta: DAGITQSPRYKITETGRQVTLMCHQTWSHSYMFWYRQDLGHGLRLIYYSAAADITDKGEVPDGYVVSRSKTENFPLTLESATRSQTSVYFCASSVGRGGTEAFFGQGTRLTVV
# B3: EE184_KRAS_8a (TCR, V domains shown)
# Valpha: AQTVTQSQPEMSVQEAETVTLSCTYDTSESDYYLFWYKQPPSRQMILVIRQEAYKQQNATENRFSVNFQKAAKSFSLKISDSQLGDAAMYFCAYKKYNDMRFGAGTRLTVKP
# Vbeta: DGGITQSPKYLFRKEGQNVTLSCEQNLNHDAMYWYRQDPGQGLRLIYYSQIVNDFQKGDIAEGYSVSREKKESFPLTVTSAQKNPTAFYLCASSTGAGAFRTEAFFGQGTRLTVV
# B4: PD6_KRASmut_22 (TCR, V domains shown)
# Valpha: AQTVTQSQPEMSVQEAETVTLSCTYDTSESDYYLFWYKQPPSRQMILVIRQEAYKQQNATENRFSVNFQKAAKSFSLKISDSQLGDAAMYFCAYYSGGGADGLTFGKGTHLIIQP
# Vbeta: SAVISQKPSRDICQRGTSLTIQCQVDSQVTMMFWYRQQPGQSLTLIATANQGSEATYESGFVIDKFPISRPNLTFSTLTVSNMSPEDSSIYLCSVTWAGGWSYGYTFGSGTRLTVV
# B5: EE208_KRAS_1 (TCR, V domains shown)
# Valpha: GNSVTQMEGPVTLSEEAFLTINCTYTATGYPSLFWYVQYPGEGLQLLLKATKADDKGSNKGFEATYRKETTSFHLEKGSVQVSDSAVYFCALSDGAGGFKTIFGAGTRLFVKA
# Vbeta: EADIYQTPRYLVIGTGKKITLECSQTMGHDKMYWYQQDPGMELHLIHYSYGVNSTEKGDLSSESTVSRIRTEHFPLTLESARPSHTSQYLCASSESLYNEQFFGPGTRLTVL
# Legend:
# [1] = molecular target: KRAS G12D neoantigen endogenously presented by HLA A*11:01 on KRAS-p.G12D tumor or transfected cell lines (human); experiment: cell-based or functional assay
# [2] = molecular target: T1, KRAS wild type peptide on HLA-A*11:01 (human); experiment: killing
# T1 peptide: VVGAGGVGK
# [3] = molecular target: T2, KRAS G12D peptide on HLA-A*11:01 (human); experiment: killing
# T2 peptide: VVVGADGVGK
# [4] = molecular target: T3, KRAS G12D peptide on HLA-A*11:01 (human); experiment: killing
# T3 peptide: VVGADGVGK
# [5] = molecular target: T4, KRAS wild type peptide on HLA-A*11:01 (human); experiment: killing
# T4 peptide: VVVGAGGVGK
# [6] = molecular target: T4, KRAS wild type peptide on HLA-A*11:01; experiment: activation reporter or marker
# [7] = molecular target: T2, KRAS G12D peptide on HLA-A*11:01; experiment: cytokine release
# [8] = molecular target: T3, KRAS G12D peptide on HLA-A*11:01; experiment: cytokine release
# [9] = molecular target: T2, KRAS G12D peptide on HLA-A*11:01; experiment: activation reporter or marker
binder,measurement,setting,value
B1,CD137 upregulation,[1],7 of 7 lines
same,IFNg production,[1],5 of 7 lines
same,granzyme B production,[1],6 of 7 lines
same,killing activity (impedance assay),[1],5 of 7 lines
B2,binding result,[2],no recognition
same,binding result,[3],recognises
same,binding result,[4],recognises
same,binding result,[5],no recognition
B3,binding result,[3],recognises
same,binding result,[4],recognises
same,binding result,[6],no recognition
B4,binding result,[7],recognises
same,binding result,[8],recognises
B5,binding result,[9],recognises
same,binding result,[6],no recognition

# From patent publication US20260232734A1 (published 2026)
